Test results reported in the nanobody polyreactivity screen of Harvey et al. (2022).

Assay: yeast display, Sf9 membrane polyspecificity reagent, FACS + sequencing; frameworks hold sequencing errors
How it was run: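 Galactose-induced (36–48 hours) yeast carrying a synthetic nanobody display library were exposed to 10% biotinylated, detergent-solubilized Sf9 membrane reagent at 4 °C for 1 hour. FACS followed streptavidin microbead enrichment, using low and high (top ~1%) gates for expression (anti-HA) and reagent binding (streptavidin). Colony PCR, MiSeq 2 × 250 sequencing and CDR-length filtering followed. Labels for polyreactivity reflect the gate of origin.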

Row | Sequence | polyreactivity (PSR sort gate)
1 | QVQLVESGGGLVQAGGSLRLSCAASGSILGRYAMGWYRQAPGKERELVAAITSSGGRTYYADSVKGRFTISRDNAKNSVYLQMNSLKPEDTAVYYCAARYGRRLVWVPALLYDYWGQGTQVTVSS | high polyreactivity
2 | QVQLQEGGGGLVQAGGSLRLSCAASGYIFNGDWMGWYRQAPGKERELVATINYGATTNYADSVKGRFTISRDNAKNTVYLQMNSLKPEDTAVYYCAVGGHGAQLYVYWGQGTQVTVSN | high polyreactivity
3 | QVQLVESGGGLVQAGGSLRLICAASGSTFARNAMGWYRQAPGKERELVAAITTRGSSTYYADSVKGRFTISRDNAKNTVYLQMNSLKPEDTAVYYCAADSRRSWYWGGYRQTGMGYWGQGTQLTVSS | high polyreactivity
4 | QVQHVESGGGLVQAGGSLRLTCAASGFIFVIYAMGWYRTAPGKERELVAAITESGDRTYYADSVKGGFTISRDNAKNTVYLQMNSLKPEDTAVYYCNALLSYGYHAAYGYWGQGTQVTVSS | high polyreactivity
5 | QVQLVESGGGLVQAGGSLRLSCAASGSIFTPYAMGWYRQAPGKERELGATISWSGGRTYYADSVKGRFTISRDNAKNTVYLQMNSLKPEDSAVYYCAARGYSSEYDYWGQGTQVTVSS | high polyreactivity
6 | QVQLVESGGGLVQAGGSLRLSCAASGRTFVVNAMGWYRQAPGKERELVARITNSGLTNYADSVKGRFTISRDNAKNTVYLQMNSLKPEDTAVYYCNAAASYYVMLSWTRVYYWGQGTQVTVSS | high polyreactivity
7 | QVQLVESGGGLVQAGGSLRISCDASGSTLRGYSIGWYRQAPGKERELVAAISRRGSGTYYADSVKGRFTISRDNAKNTVYLQMNSLKPEDTAVYYCNAVNGDYEFGYWGQGTQVTVSS | high polyreactivity
8 | QVQLVESRGGLVQAGGSLRLISAASGSSFLSYAMGWYRQAPGKERELVAAITGSGGNTYYADSVKGRFTISRDNAKNTVYLQMNSLIPEDTAVYYCAARAPTWAGTYGYWGQGTQVTVSS | high polyreactivity
9 | QVQLVESGGGLVQAGGSLRLSCAASGSTVHYMGWYRQAPGKERELVAGISWSGGSTYYADSVKGRFTISRDNAKNTVYLQMNSLKPEDTAVYYCAADIKIRLYTTGDYWGQGSQVTVSS | low polyreactivity
10 | QVQLVESGGGLVQAGGSLRLSCAASGRTFGNYVMGWYRQAPGKERELVAAIRSGTNTYYADSVKGRFTISLDNAKNTVYLQMNSLKPEVTAVYYCNKYVRTTDYDYWGQGIQVTVSS | high polyreactivity
11 | QVQLVESGGGLIQAGGSLRLSCAASGIIFYPYTMGWYRQAPGKERELVAAIRQSGTSTYYADSVKGRFTISRDNAKNTVYLQMNSLKPEDTAVYYCAAPPYYSYDYWGQGTQVTVSS | low polyreactivity
12 | QVQLVESGGGLVQAGGRLRLSCAAAGSIFSYTMGWYRQAPWKERELVAAIRRRGGSTYYADSVKGRFTISRDNAKNTVYLQMTSLKPEDTAVYYCAADGYQYRHRRFFYWGQGTQVTVSS | high polyreactivity
13 | QVQLVESGGGLVQAGGSLRLSCAASGSTFVDNAMGWYRQAPGKERELVAAISTRGGTTYYADSVKGRFTISRDNAKNTVYLQMNSLKPEDTAVYYCAADYYDSGWYGYWGQGTQVTVSS | high polyreactivity
14 | QVQLVESGGGIVQAGGSLRLSCAASGIIFWNYTMGWYRQAPGKERELVAAISVSGGSTYYADSVKGRFTISRDNAKNTVYLQMNSLKPEDTAVYYCAAEWIYPSPHYEYDYWGQGTQVTVSS | high polyreactivity
15 | QVQLVESGGGLVQAGGSLRLSCAASGRTFQYYTMGWYRQAPGKERELVAAISSSGVSTYYADSVKGRFTISRDNAKNTVYLQMNSLKPEDTAVYYCNAVSRARYHAAYDSWGQGTQVTVSS | high polyreactivity
16 | QVQLQESDGGLVQAGGSLRLSCAASGNIFPTDRMGRYRQAPAKVLEFVATISHGGSTNYADSVKGRFTISRDNATNTVYLQMNSLKPEDTAVYYCAVWSLGRCRHYYWGQGTHVTVSS | low polyreactivity
17 | QVQLEESGGGLVQAGGSLRLSCAASGSILESNVMGWYRQAPGKERELVASISSSGDSTYADSVKGRFTISRDNAKNTVYLQMNSLKPEDTAVYYCAADRWYWTYALYYWGQGTQVTVSS | low polyreactivity
18 | QVQLVESGGGLVQAGGSLRLSCAASGSIFWYNAMGWYRQAPGKERELVAAINWSGGSTFYADSVKGRFTISRDNAKNTVFLQMNSLKPEDTAVYYCAADDWYTGYDYWGHGTQVTVSS | high polyreactivity
19 | QVQLVESGGGLVQAGGSLRLSCAASGSTFYSNAMGWYRQAPGKERELVAAISSTGSSTYYADSVKGRFTISRDNAKNTVYLQMNSLKPEDTAVYYCATDYYQSYWPATYDYWGQGTQVTVSS | low polyreactivity
20 | QVQLVESGGGLVQAGGSLRLSCAASGFIFARYAMGWYRQAPGKERELVASITGRGTSTRYADSVKGRFTISRDNAKNTVYLQMNSLKPEDTAVFYCNAARLSYSWVPSEMDYWGQGTQVTVSS | high polyreactivity
21 | QVQLVESGGGLVQAGGSLRLSCAASGITFQWYAMGWYRQAPGKERELVAAITYRGGSTYYADSVKGRFTISRDNAKNTVYLQMNSLKPEDTAVYYCARDHSRHLHPSWLDYWGQGTQVTVSS | high polyreactivity
22 | QVQLVESGGGLVQAVGSLRLSCAASGSTLVYYAMGWYRQAPGKERELVATITRSGGNTYYADSVKGRFTISRDNAKNTVYLQMNSLNPEDTAVYYWAARRLYGSQRGYWGQGTQVTVSS | high polyreactivity

Row | Sequence | polyreactivity (PSR sort gate)
23 | QVQLVESGGGLVQAGGSLRLSCAASGSTLGVNAMGWYRQAPGKEREFVAAITGRGGNTYYADSVKGRFTISRDNAKNTVYLQMNSLTPEDTAVYYCAARDKYTRYQSILDYYYWGQGTQVTVSS | high polyreactivity
24 | QVQLVESGGGLVQAGGSLRLSCAASGSIFSKYTMGWYRQAPGKERELVAAISRAGSTYYADSVKGRFTISRDNAKNTVYLQMNSLKPEDTAVYYCAAEWSDSVYYSYEYWGQGTQVTVSS | high polyreactivity
25 | QVQLVESGGGLVQAGGSLRLSCAASGSTYRYYDMGWYRQAPGKERELVAAITWSGGTTYYADSVKGRFTISRDNAKNTVYLQMNSLKPEDTAVYYCAADSVLTPYDYWGQGTQVTVSS | low polyreactivity
26 | QVQLVESGGGLVQAGGSLRLSCAASGFIFDQNAMGWYRQAPGKERELVAAISKRGGSTYYADSVKGRFTISRDNAKNTVYLQMNSLKPEDTAVYYCATRSWGPYYYGYNHWGQGTQETVSS | high polyreactivity
27 | QVQLVESGGGLVQAGGSLRLSCAASGFTFYRNAMGWYRQAPGKERELVAAITLSGTSTYYADSVMGRFTISRDNAKNTVYLQMISLIPEDTAVYYWNTVGYRGPSNSRFYYWGQGTQVTLSS | high polyreactivity
28 | QVQLVESAGGLVQAGGSLRLSCAASGIIFDDNAKGWYRQAPGKERELVAAISGRGGSTYYADSVKGRFTISRDNAKNTVYLQMNSLKPEDTAVYYCAASTVRRGTAPYSGGGDYWGQGTQVTVSS | high polyreactivity
29 | QVQLVESGGGLVQAGGSLRLSCAASGSTFLAYAMGWYRQAPGKERELVAAISSRGSRTYYADSVKGRFTISRDNAKNTVYLQMNSLKPEDTAVYYCATPYSRSYSYRYDYWGQGTQVTVSS | high polyreactivity
30 | QVHLVESGGGLVQAGGSLRLSCAASGSTILFYAMGWYRQAPGKERELVATISRGGSTYYADSVKGRFTISRDNAKNTVYLEMNSLKPEDTAVYYCAARATRVTIAPRYGYWGQGTQVTVSS | low polyreactivity
31 | QVQLVESGGGLVQAGGSLRLSCAASGGIFVSYAMGWSRQAPGKERELVARINTVDGTNYADSVKGRFTISRDNAKNTVYLQMNSLKPEDTAVYYCAVRSPVLASDYGYYFLRDYWGQGTQVTVSS | low polyreactivity
32 | QVQLVESGGGLVLAGGSLRLSCAASGSTFGRYAMGWSRQAPGKERELVAAISRGTTTNYADSVKGRFTIARDNAKNTVYLQMNSLKPEETAVYYCAADQPSKRYYYWGQGTQVTVSS | low polyreactivity
33 | QVQLVESGGGLVQAGGSLRLSCAASGRTFRKYTMGWYRQAPGKERELVAAISSRGGSTYYADSVKGRFTISRDNAKNTVYLQMNSLKPEDTAVYYCATDYITPSSEGDYWGQGTQVTVSS | high polyreactivity
34 | QDQRVESGGGIDQAGGSLRLSCAASGSTVDFNAMGWYRQAPGTERELVAAITYSGGSTYYADSVKGRFTISRDNAKNTVYLQMNSLKPQDTAVYYCAAEDVYPGSIDMDYWGQGTQVSVSS | low polyreactivity
35 | QVQLVESGGGLVQAGGSLRLSCAASGIIFYVYAMGWYRQAPGKERELVAAISDTAGDTYYADSVKGRFTISRDNAKNTVYLQMNSLKPEDTAVSYCAADYYPLVGYWGQGTQVTVSS | low polyreactivity
36 | QVQLVESGGGLVQAGGSLRLSCAASGRTFIYYAMGWYTQAPRKERDYVAIITWNGTSTNYADSVKGRFTISRDNAKNTVYLQMNSLYPEDTAVYYCAASFWTDYYRYDYWGQGTQVTVSS | low polyreactivity
37 | QVQLVESGGGLVQAGGSLRLSCAASGSTFPYNAMGWYRQAPGKERELVAAITSAGGTNYADSVKGRFTISRDNAKNTVYLQMNSLKPEDTAVYYCAADGSGYYDWYYYWGQGTQVTVSS | low polyreactivity
38 | QVQLVESGGGLVQAGGSLRLSCAASGSTFRRNAMGGYRQAPGKERELVAAITSTDSTYYADSVKGRFTISRDNAKNSVYLQMNSLKPEDTAVYYCAKGYWWGGEMGYWGQGTQVTVSS | low polyreactivity
39 | QVQLVESGGGLVQAGGSLRLSCAASGLIFASYAMGWYRQAPGKERELVAAISWSGGSTYYADSVKGRFTISRDNAKNTVYLQMNSLKPEDTAVYYCAAKRYAYGSLDYWGQGTQVTVSS | high polyreactivity
40 | QVQLVESGGGLVQAGGSLRLSCAASGSTFAKYAMGWYRQAPGKERELVASIRLSGGSTYYADSVKGRFTISRDNAKNTVYLQMNSLKPEDTALYYCHKQFATFFYGFDYYYWGQGTQVTVSS | low polyreactivity
41 | QVQLGESGGGLVQAGGSLRLSCAASGFIFRAYAMGWYRQAPGKERELVASISSRGGSTYYADSVKGRFTISRDNAKNTVYLQMNSLKPEDTAVYYCNAVYTYFPGWKYDYWGQGTQVTVSS | high polyreactivity
42 | QVQLVESGGGLVQAGGSLRLSCAASGLIFYKYAMGWYRQAPGKERELVAAIRWSGGSTYYADSVKGRFTISRDNAKNTVYLQMNSLKPEDTAVYYCAALSWNHQYEYWGQGTQVTVSS | high polyreactivity
43 | QVNLVESGGGLVQAGGSLRLSCAASGRIFRKYAMGWYRQAPGKVREFVAAITVSGDRTYYADSVKGRFTISRDNAKNNVYLQMNSLKPEDTAVYYCATKGYYYPYVTYDYWGQGTQVTVSS | low polyreactivity
